Data published in US20050100551A1.

Experiments:
[1] = biological target: Herceptin; test: inhibition ELISA: herceptin preincubated with wild-type phage, binding to SKBR3 membranes (Her-2/neu)
[2] = biological target: Herceptin; test: inhibition ELISA: herceptin preincubated with KLH alone, binding to SKBR3 membranes (Her-2/neu)

Substance | Percent inhibition in comparison to uninhibited herceptin control [1] [%] | Percent inhibition in comparison to uninhibited herceptin control [2] [%]
Wild-type phage | 3 | –
KLH (from UniProt Q10583 17-3414) | – | 0
